Paper PMC9035363

What was measured:
[1] = target: SARS-CoV-2 S D614G on CHO cells (SARS-CoV-2) (UniProt P0DTC2)
[2] = target: RBD N440D on yeast (SARS-CoV-2) (UniProt P0DTC2)
[3] = target: SARS-CoV-2 S S494P on CHO cells (SARS-CoV-2) (UniProt P0DTC2)
[4] = target: SARS-CoV-2 S D614G on CHO cells (SARS-CoV-2) (UniProt P0DTC2); remark: listed apart in the source
[5] = target: SARS-CoV-2 S N439K on CHO cells (SARS-CoV-2) (UniProt P0DTC2)
[6] = target: SARS-CoV-2 S S477N on CHO cells (SARS-CoV-2) (UniProt P0DTC2)
[7] = target: RBD-Fc K417N (SARS-CoV-2) (UniProt P0DTC2)
[8] = target: RBD-Fc L452R (SARS-CoV-2) (UniProt P0DTC2)
[9] = target: RBD-Fc K417T (SARS-CoV-2) (UniProt P0DTC2)
[10] = target: SARS-CoV-2 S N501Y on CHO cells (SARS-CoV-2) (UniProt P0DTC2)
[11] = target: SARS-CoV-2 S S494P on CHO cells (SARS-CoV-2) (UniProt P0DTC2); remark: listed apart in the source
[12] = target: RBD-Fc Y453F (SARS-CoV-2) (UniProt P0DTC2)
[13] = target: RBD-Fc K417E (SARS-CoV-2) (UniProt P0DTC2)
[14] = target: RBD-Fc D420N (SARS-CoV-2) (UniProt P0DTC2)
[15] = target: RBD-Fc L452R (SARS-CoV-2) (UniProt P0DTC2); remark: listed apart in the source
[16] = target: RBD-Fc E484K (SARS-CoV-2) (UniProt P0DTC2)
[17] = target: RBD-Fc Y453F (SARS-CoV-2) (UniProt P0DTC2); test: SPR
[18] = target: RBD-Fc N460T (SARS-CoV-2) (UniProt P0DTC2); test: SPR
[19] = target: RBD-Fc G476S (SARS-CoV-2) (UniProt P0DTC2); test: SPR
[20] = target: RBD-Fc S494P (SARS-CoV-2) (UniProt P0DTC2); test: SPR
[21] = target: RBD-Fc K417E (SARS-CoV-2) (UniProt P0DTC2); test: SPR
[22] = target: RBD-Fc E484Q (SARS-CoV-2) (UniProt P0DTC2); test: SPR
[23] = target: RBD-Fc F490S (SARS-CoV-2) (UniProt P0DTC2); test: SPR
[24] = target: RBD-Fc V483A (SARS-CoV-2) (UniProt P0DTC2); test: SPR
[25] = target: RBD-Fc F486I (SARS-CoV-2) (UniProt P0DTC2); test: SPR
[26] = target: RBD-Fc Y489H (SARS-CoV-2) (UniProt P0DTC2); test: SPR
[27] = target: RBD-Fc E484D (SARS-CoV-2) (UniProt P0DTC2); test: SPR
[28] = target: RBD-Fc D420N (SARS-CoV-2) (UniProt P0DTC2); test: SPR
[29] = target: RBD-Fc K417N (SARS-CoV-2) (UniProt P0DTC2); test: SPR
[30] = target: RBD-Fc N460K (SARS-CoV-2) (UniProt P0DTC2); test: SPR
[31] = target: RBD-Fc N501Y (SARS-CoV-2) (UniProt P0DTC2); test: SPR
[32] = target: RBD-Fc S477N (SARS-CoV-2) (UniProt P0DTC2); test: SPR
[33] = target: RBD-Fc N460S (SARS-CoV-2) (UniProt P0DTC2); test: SPR
[34] = target: RBD-Fc L452R (SARS-CoV-2) (UniProt P0DTC2); test: SPR
[35] = target: RBD-Fc K417T (SARS-CoV-2) (UniProt P0DTC2); test: SPR
[36] = target: RBD-Fc F486V (SARS-CoV-2) (UniProt P0DTC2); test: SPR
[37] = target: RBD-Fc E484K (SARS-CoV-2) (UniProt P0DTC2); test: SPR
[38] = target: RBD-Fc N439K (SARS-CoV-2) (UniProt P0DTC2); test: SPR

Substance “LY-CoV1404 (bebtelovimab), full-length human IgG1 mAb (antibody)” has a pseudovirus neutralisation (second system of Table 3D), IC50 [1] of 3 ng/mL, a pseudovirus (whole S) susceptibility IC50 [2] of 6 ng/mL and a VSV pseudovirus neutralisation IC50 [3] of 2 ng/mL. It also gave a lentiviral pseudovirus neutralisation IC50 [4] of 3 ng/mL, a lentiviral pseudovirus neutralisation IC90 [4] of 10 ng/mL and a VSV pseudovirus neutralisation IC50 [5] of 2 ng/mL. For the same substance, the VSV pseudovirus neutralisation IC90 [5] was 7 ng/mL, the VSV pseudovirus neutralisation IC50 [6] was 5 ng/mL and the VSV pseudovirus neutralisation IC90 [6] was 26 ng/mL. The VSV pseudovirus (whole S) neutralisation IC50 [7] was 2 ng/mL, the VSV pseudovirus (whole S) neutralisation IC50 [8] was < 1 ng/mL and the lentiviral pseudovirus (whole S) neutralisation IC90 [8] was 10 ng/mL. For the same substance, the VSV pseudovirus (whole S) neutralisation IC50 [9] was 2 ng/mL, the VSV pseudovirus neutralisation IC50 [10] was 2 ng/mL and the VSV pseudovirus neutralisation IC90 [10] was 7 ng/mL. For the same substance, the pseudovirus susceptibility IC50 [11] was 1 ng/mL, the pseudovirus (whole S) susceptibility IC50 [12] was 2 ng/mL and the pseudovirus (whole S) susceptibility IC50 [13] was 4 ng/mL. It also gave a pseudovirus (whole S) susceptibility IC50 [14] of 2 ng/mL, a pseudovirus (whole S) susceptibility IC50 [15] of 2 ng/mL and a pseudovirus (whole S) susceptibility IC50 [16] of 2 ng/mL.

With LY-CoV1404 Fab (papain digestion) the Kd [17] was 3.28 nM, the Kd [18] was 3.52 nM and the Kd [19] was 4.35 nM. For the same substance, the Kd [20] was 3.46 nM, the Kd [21] was 2.59 nM and the Kd [22] was 3.74 nM. The Kd [23] was 2.99 nM, the Kd [24] was 3.29 nM and the Kd [25] was 2.69 nM. For the same substance, the Kd [26] was 3.06 nM, the Kd [27] was 3.37 nM and the Kd [28] was 4.09 nM. For the same substance, the Kd [29] was 3.08 nM, the Kd [30] was 3.4 nM and the Kd [31] was 2.9 nM. It also gave a Kd [32] of 3.45 nM, a Kd [33] of 2.6 nM and a Kd [34] of 4.94 nM. The Kd [35] was 2.54 nM, the Kd [36] was 2.82 nM and the Kd [37] was 3.19 nM. The Kd [38] was 5.05 nM.
